Laboratory results taken from patent publication US20250262210A1 (TRUSTEES OF COLUMBIA UNIVERSITY IN THE CITY OF NEW YORK, published 2025).

Tests used:
Experiment in all cases: IP/MS, LZTR1 wild type-FLAG, U87
KNL1 = KNL1 (human, UniProt Q8NG31 1-2342, limits assumed)
Summary of the method: (§1)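 Extracted peptides in 3% acetonitrile/0.1% formic acid ran on a 50 cm C18 column into an Orbitrap Fusion, with MaxQuant identification and spectral counting.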

CC2D1A = target: T1, CC2D1A (human, UniProt Q6P1N0 1-951, limits assumed)
T1 sequence (looked up): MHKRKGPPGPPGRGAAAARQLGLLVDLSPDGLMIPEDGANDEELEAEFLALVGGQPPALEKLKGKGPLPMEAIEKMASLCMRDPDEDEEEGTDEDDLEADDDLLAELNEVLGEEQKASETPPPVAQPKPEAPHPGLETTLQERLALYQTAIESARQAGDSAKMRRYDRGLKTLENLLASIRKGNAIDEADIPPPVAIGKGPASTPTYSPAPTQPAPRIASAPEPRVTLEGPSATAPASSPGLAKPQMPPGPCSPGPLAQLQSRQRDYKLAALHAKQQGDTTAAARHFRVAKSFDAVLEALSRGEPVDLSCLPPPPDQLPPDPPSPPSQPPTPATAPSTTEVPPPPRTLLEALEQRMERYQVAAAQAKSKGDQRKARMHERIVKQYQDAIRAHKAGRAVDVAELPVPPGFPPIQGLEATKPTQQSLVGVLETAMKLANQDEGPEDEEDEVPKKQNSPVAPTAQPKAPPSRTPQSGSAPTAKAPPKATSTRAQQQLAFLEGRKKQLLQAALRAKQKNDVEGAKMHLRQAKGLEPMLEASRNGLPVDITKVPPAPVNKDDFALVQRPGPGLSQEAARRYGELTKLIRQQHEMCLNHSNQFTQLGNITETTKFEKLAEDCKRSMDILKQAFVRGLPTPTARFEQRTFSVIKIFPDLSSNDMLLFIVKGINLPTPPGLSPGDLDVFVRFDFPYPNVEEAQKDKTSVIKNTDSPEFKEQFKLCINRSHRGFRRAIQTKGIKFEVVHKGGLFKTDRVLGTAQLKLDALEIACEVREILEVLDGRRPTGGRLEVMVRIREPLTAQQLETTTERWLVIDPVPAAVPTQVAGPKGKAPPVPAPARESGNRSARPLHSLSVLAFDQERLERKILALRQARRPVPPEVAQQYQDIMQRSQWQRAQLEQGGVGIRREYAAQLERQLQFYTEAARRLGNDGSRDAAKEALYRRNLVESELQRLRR
Summary of the method: as §1

RNF213 = RNF213 (human, UniProt Q63HN8 1-5207, limits assumed)
Summary of the method: as §1

CRYBG1 = CRYBG1 (human, UniProt Q9Y4K1 1-2131, limits assumed)
Summary of the method: as §1

ASXL1 = ASXL1 (human, UniProt Q8IXJ9 1-1541, limits assumed)
Summary of the method: as §1

PPFIBP1 = target: T2, PPFIBP1 (human, UniProt Q86W92 1-1011, limits assumed)
T2 sequence (looked up): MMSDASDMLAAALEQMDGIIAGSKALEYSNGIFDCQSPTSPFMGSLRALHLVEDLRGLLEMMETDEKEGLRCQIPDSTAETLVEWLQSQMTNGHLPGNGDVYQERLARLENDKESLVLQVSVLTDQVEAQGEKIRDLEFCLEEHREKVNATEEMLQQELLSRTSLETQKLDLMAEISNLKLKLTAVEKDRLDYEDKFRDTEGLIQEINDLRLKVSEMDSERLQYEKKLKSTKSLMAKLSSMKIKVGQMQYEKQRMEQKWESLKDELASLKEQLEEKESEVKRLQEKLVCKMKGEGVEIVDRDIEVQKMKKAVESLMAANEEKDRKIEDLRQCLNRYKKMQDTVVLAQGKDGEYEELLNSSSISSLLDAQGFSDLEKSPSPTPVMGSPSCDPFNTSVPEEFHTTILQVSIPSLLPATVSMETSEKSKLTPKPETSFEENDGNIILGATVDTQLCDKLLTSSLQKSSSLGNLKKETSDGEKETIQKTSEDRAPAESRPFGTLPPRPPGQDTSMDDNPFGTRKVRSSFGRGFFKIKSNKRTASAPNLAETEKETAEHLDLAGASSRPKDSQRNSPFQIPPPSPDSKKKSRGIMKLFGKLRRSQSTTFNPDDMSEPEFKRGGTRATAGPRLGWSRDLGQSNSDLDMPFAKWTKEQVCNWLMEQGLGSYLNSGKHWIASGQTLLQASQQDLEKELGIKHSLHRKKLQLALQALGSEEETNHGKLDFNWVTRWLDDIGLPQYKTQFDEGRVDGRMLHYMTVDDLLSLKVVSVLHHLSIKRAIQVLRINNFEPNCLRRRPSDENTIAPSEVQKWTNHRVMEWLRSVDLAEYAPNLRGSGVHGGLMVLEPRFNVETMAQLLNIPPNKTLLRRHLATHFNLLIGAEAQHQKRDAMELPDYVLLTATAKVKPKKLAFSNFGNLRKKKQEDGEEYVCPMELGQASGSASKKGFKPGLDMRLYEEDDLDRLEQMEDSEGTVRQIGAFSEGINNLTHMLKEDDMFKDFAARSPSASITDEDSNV
Summary of the method: as §1

Chain of ASXL1 (Q8IXJ9 whole entry): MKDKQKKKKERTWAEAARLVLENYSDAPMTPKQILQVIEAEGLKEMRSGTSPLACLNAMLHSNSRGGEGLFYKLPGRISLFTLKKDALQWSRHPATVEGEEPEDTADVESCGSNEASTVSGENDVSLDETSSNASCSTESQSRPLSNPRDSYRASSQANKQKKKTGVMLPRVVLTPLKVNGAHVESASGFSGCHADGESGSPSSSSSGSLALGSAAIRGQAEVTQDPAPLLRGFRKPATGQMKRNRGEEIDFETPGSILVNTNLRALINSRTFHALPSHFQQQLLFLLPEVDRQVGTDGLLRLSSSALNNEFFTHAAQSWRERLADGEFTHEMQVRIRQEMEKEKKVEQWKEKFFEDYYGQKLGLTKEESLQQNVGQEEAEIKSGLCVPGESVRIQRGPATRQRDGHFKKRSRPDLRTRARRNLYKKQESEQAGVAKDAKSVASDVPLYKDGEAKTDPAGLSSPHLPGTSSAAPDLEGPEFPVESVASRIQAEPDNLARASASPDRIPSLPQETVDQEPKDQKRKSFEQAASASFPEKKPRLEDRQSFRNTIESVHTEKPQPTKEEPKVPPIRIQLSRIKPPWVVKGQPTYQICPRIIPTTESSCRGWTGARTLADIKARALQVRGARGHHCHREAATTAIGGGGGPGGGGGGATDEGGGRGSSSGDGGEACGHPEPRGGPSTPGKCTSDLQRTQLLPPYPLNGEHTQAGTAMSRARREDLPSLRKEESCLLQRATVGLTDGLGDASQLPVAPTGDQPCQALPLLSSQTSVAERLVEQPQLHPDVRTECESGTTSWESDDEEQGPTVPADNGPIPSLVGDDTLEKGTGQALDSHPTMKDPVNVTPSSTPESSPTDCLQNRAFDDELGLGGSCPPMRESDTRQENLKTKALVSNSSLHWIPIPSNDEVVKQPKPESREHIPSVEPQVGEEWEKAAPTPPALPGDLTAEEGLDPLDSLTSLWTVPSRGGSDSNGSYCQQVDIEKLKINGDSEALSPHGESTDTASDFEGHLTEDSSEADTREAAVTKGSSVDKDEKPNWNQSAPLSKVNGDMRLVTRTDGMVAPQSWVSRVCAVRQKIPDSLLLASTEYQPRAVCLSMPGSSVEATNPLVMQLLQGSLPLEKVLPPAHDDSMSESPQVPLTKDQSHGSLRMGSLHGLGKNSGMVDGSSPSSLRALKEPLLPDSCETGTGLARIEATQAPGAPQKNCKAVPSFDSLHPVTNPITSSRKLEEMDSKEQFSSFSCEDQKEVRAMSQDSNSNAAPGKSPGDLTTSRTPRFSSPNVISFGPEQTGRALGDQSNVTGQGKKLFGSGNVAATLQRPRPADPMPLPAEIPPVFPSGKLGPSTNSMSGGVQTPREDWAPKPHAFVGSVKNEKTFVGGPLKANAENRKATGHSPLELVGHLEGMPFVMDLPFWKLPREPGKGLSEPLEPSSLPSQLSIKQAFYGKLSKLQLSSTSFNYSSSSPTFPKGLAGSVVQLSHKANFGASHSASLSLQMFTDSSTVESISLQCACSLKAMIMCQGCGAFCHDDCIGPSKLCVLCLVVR
Chain of KNL1 (Q8NG31 whole entry, the tested form may be a part): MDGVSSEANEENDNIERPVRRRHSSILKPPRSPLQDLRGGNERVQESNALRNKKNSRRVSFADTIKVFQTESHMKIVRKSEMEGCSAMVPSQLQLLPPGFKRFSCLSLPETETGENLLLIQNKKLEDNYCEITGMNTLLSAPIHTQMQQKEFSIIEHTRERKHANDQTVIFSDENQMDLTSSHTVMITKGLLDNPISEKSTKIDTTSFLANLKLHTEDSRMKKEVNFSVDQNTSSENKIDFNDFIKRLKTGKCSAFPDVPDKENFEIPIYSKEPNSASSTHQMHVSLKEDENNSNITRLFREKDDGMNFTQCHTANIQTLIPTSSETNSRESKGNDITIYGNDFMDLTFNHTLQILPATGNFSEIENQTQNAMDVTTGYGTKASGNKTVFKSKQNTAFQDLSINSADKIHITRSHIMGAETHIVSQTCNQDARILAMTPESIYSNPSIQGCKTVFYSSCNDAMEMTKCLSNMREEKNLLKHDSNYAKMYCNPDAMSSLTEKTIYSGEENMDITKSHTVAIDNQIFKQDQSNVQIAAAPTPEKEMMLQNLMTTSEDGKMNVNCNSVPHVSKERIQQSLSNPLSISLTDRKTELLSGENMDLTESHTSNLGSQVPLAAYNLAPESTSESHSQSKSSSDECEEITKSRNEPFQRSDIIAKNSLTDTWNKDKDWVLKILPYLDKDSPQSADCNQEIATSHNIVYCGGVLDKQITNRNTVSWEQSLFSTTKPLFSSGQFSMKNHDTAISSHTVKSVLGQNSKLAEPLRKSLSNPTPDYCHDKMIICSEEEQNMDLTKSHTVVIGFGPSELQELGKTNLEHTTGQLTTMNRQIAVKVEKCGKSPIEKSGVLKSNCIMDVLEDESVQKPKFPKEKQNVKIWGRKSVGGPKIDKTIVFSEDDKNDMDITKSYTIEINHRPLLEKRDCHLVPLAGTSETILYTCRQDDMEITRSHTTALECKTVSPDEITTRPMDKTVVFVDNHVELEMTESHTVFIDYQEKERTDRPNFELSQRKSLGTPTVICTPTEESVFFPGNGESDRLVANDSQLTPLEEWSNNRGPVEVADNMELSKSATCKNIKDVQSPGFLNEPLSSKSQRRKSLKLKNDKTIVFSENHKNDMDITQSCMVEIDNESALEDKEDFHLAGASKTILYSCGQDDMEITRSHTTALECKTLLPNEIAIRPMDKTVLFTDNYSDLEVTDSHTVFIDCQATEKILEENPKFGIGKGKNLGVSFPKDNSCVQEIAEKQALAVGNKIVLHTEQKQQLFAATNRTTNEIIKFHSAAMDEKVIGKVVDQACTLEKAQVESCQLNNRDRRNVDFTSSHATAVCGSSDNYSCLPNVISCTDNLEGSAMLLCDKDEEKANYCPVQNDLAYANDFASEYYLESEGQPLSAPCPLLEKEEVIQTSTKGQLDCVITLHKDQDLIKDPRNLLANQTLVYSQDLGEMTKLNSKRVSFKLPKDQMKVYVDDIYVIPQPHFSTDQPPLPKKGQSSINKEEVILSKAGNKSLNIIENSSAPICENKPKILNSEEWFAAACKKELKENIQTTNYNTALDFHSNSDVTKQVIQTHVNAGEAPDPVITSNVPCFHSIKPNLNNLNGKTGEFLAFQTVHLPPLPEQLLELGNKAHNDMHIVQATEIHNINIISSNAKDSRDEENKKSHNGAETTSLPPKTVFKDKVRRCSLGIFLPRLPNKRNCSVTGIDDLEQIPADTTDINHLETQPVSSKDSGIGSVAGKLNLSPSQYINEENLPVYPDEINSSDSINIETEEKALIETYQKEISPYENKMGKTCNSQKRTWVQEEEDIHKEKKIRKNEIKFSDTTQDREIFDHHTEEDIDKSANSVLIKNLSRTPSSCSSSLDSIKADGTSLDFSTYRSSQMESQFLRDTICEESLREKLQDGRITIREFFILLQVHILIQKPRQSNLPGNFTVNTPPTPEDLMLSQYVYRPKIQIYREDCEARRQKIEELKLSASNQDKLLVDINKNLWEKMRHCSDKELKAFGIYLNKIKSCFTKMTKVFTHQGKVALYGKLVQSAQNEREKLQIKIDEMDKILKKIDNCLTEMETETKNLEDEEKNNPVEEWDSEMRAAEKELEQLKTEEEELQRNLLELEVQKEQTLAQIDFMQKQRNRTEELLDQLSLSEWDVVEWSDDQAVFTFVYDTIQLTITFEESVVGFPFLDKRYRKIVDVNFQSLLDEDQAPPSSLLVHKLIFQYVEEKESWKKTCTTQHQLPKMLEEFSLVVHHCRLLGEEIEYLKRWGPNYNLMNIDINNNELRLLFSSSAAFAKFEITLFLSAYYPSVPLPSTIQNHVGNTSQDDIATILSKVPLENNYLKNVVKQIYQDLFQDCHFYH

binding result (KNL1): binds
binding result (CC2D1A): binds
binding result (RNF213): binds
binding result (CRYBG1): binds
binding result (ASXL1): binds
binding result (PPFIBP1): binds
B1: LZTR1-FLAG (other, human, UniProt Q8N653 1-840, looked up)
chain: MAGPGSTGGQIGAAALAGGARSKVAPSVDFDHSCSDSVEYLTLNFGPFETVHRWRRLPPCDEFVGARRSKHTVVAYKDAIYVFGGDNGKTMLNDLLRFDVKDCSWCRAFTTGTPPAPRYHHSAVVYGSSMFVFGGYTGDIYSNSNLKNKNDLFEYKFATGQWTEWKIEGRLPVARSAHGATVYSDKLWIFAGYDGNARLNDMWTIGLQDRELTCWEEVAQSGEIPPSCCNFPVAVCRDKMFVFSGQSGAKITNNLFQFEFKDKTWTRIPTEHLLRGSPPPPQRRYGHTMVAFDRHLYVFGGAADNTLPNELHCYDVDFQTWEVVQPSSDSEVGGAEVPERACASEEVPTLTYEERVGFKKSRDVFGLDFGTTSAKQPTQPASELPSGRLFHAAAVISDAMYIFGGTVDNNIRSGEMYRFQFSCYPKCTLHEDYGRLWESRQFCDVEFVLGEKEECVQGHVAIVTARSRWLRRKITQARERLAQKLEQEAAPVPREAPGVAAGGARPPLLHVAIREAEARPFEVLMQFLYTDKIKYPRKGHVEDVLLIMDVYKLALSFQLCRLEQLCRQYIEASVDLQNVLVVCESAARLQLSQLKEHCLNFVVKESHFNQVIMMKEFERLSSPLIVEIVRRKQQPPPRTPLDQPVDIGTSLIQDMKAYLEGAGAEFCDITLLLDGHPRPAHKAILAARSSYFEAMFRSFMPEDGQVNISIGEMVPSRQAFESMLRYIYYGEVNMPPEDSLYLFAAPYYYGFYNNRLQAYCKQNLEMNVTVQNVLQILEAADKTQALDMKRHCLHIIVHQFTKVSKLPTLRSLSQQLLLDIIDSLASHISDKQCAELGADI
notes: Expressed in HEK 293T, HeLa or U87 cells; used as cell lysate; also called LZTR1 wild type-FLAG; LZTR1 WT; not shown: FLAG tag at the C-terminus
